B1: F1*; the commonest letter at each place (parent)
chain: GAGACCGCAACTGAAAAGTTGTTATCACTTGTCGTAAGACACTTTGGATGGGTTGAAGTTCTGCACGTAGAAGCAAAAGGC

Among the data in the supplement of paper PMC6755084 are fraction ligated values, retold here.

Variants of B1 are the subject of the data set. In words: fraction ligated after 30 min (ligated reads / total reads); higher = more ligase activity. As to conditions: with F1*sub RNA substrate (template-directed ligation), 42 °C. The gist of the method: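 Ribozyme variants were transcribed with T7 from PCR-amplified oligo-pool templates and gel-purified. Ligated and unligated bands, separated on gel, were reverse transcribed with barcoded primers and sequenced on a MiSeq, with core bases filtered at quality ≥20. Fraction ligated per variant was computed as ligated reads divided by total reads.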
For the variant GAGACCGCAACTGAAAAGTTGTTATGACTTGTCGTATGACACTTTGGATGGGTTGAAGTTCTGCACGTAGAAGCAAAAGGC, the fraction ligated is 0.707.
Take GAGACCGCAACTGAAAAGTTGTTATGACTTGTCGTACGACACTTTGGATGGGTTGAAGTTCTGCACGTAGAAGCAAAAGGC: the fraction ligated turned out to be 0.674.
For GAGACCGCAACTGAAAAGTTGTTATGACTTGTCGTAGGACACTTTGGATGGGTTGAAGTTCTGCACGTAGAAGCAAAAGGC, the fraction ligated came to 0.762.
Consider GAGACCGCAACTGAAAAGTTGTTATGACTTGTCGTAAGTCACTTTGGATGGGTTGAAGTTCTGCACGTAGAAGCAAAAGGC, for which the fraction ligated worked out at 0.493.
For the variant GAGACCGCAACTGAAAAGTTGTTATGACTTGTCGTAAGCCACTTTGGATGGGTTGAAGTTCTGCACGTAGAAGCAAAAGGC, the fraction ligated was 0.123.
Consider GAGACCGCAACTGAAAAGTTGTTATGACTTGTCGTAAGGCACTTTGGATGGGTTGAAGTTCTGCACGTAGAAGCAAAAGGC, for which the fraction ligated stood at 0.755.
As to GAGACCGCAACTGAAAAGTTGTTATGTCTTGTCGTAAGACACTTTGGATGGGTTGAAGTTCTGCACGTAGAAGCAAAAGGC, the fraction ligated is 0.411.
The value for GAGACCGCAACTGAAAAGTTGTTATGACTTGTCGTAAGACACTTTGGCTGGGTTGAAGTTCTGCACGTAGAAGCAAAAGGC was 0.104; that for GAGACCGCAACTGAAAAGTTGTTATGACTTGTCGTAAGACACTTTGGGTGGGTTGAAGTTCTGCACGTAGAAGCAAAAGGC was 0.058; that for GAGACCGCAACTGAAAAGTTGTTATGACTTGTCGTAAGACACTTTGGTTGGGTTGAAGTTCTGCACGTAGAAGCAAAAGGC was 0.00571.
The value for GAGACCGCAACTGAAAAGTTGTTATGACTTGTCGTAAGACACTTTGGATGGGTTGTAGTTCTGCACGTAGAAGCAAAAGGC was 0.0342; that for GAGACCGCAACTGAAAAGTTGTTATGACTTGTCGTAAGACACTTTGGATGGGTTGGAGTTCTGCACGTAGAAGCAAAAGGC was 0.0248.
The value for GAGACCGCAACTGAAAAGTTGTTATGACTTGTCGTAAGACACTTTGGATGGGTTGCAGTTCTGCACGTAGAAGCAAAAGGC was 0.0241.
Consider GAGACCGCAACTGAAAAGTTGTTATGACTTGTCGTAAGACACTTTGGATGGGTTGACGTTCTGCACGTAGAAGCAAAAGGC, for which the fraction ligated came out at 0.33.
Turning to GAGACCGCAACTGAAAAGTTGTTATGACTTGTCGTAAGACACTTTGGATGGGTTGATGTTCTGCACGTAGAAGCAAAAGGC, the fraction ligated amounted to 0.312.
Next, GAGACCGCAACTGAAAAGTTGTTATGACTTGTCGTAAGACACTTTGGATGGGTTGAGGTTCTGCACGTAGAAGCAAAAGGC: 0.576.
Consider GAGACCGCAACTGAAAAGTTGTTATGACTTGTTGTAAGACACTTTGGATGGGTTGAAGTTCTGCACGTAGAAGCAAAAGGC, for which the fraction ligated amounted to 0.738.
The value for GAGACCGCAACTGAAAAGTTGTTATGACTTGTAGTAAGACACTTTGGATGGGTTGAAGTTCTGCACGTAGAAGCAAAAGGC was 0.473.
On to GAGACCGCAACTGAAAAGTTGTTATGACTTGTGGTAAGACACTTTGGATGGGTTGAAGTTCTGCACGTAGAAGCAAAAGGC, for which the fraction ligated came to 0.754.
Turning to GAGACCGCAACTGAAAAGTTGTTATGACTTGTCGTAAGAAACTTTGGATGGGTTGAAGTTCTGCACGTAGAAGCAAAAGGC, the fraction ligated was determined as 0.248.
GAGACCGCAACTGAAAAGTTGTTATGACTTGTCGTAAGAGACTTTGGATGGGTTGAAGTTCTGCACGTAGAAGCAAAAGGC: the fraction ligated worked out at 0.793.
Consider GAGACCGCAACTGAAAAGTTGTTATGACTTGTCGTAAGATACTTTGGATGGGTTGAAGTTCTGCACGTAGAAGCAAAAGGC, for which the fraction ligated turned out to be 0.678.
The value for GAGACCGCAACTGAAAAGTTGTTATGACTTGTCGTGAGACACTTTGGATGGGTTGAAGTTCTGCACGTAGAAGCAAAAGGC was 0.767.
Next, GAGACCGCAACTGAAAAGTTGTTATGACTTGTCGTTAGACACTTTGGATGGGTTGAAGTTCTGCACGTAGAAGCAAAAGGC: 0.773; GAGACCGCAACTGAAAAGTTGTTATGACTTGTCGTCAGACACTTTGGATGGGTTGAAGTTCTGCACGTAGAAGCAAAAGGC: 0.0567.
In the case of GAGACCGCAACTGAAAAGTTGTTATGACTTGTCGTAAGACAATTTGGATGGGTTGAAGTTCTGCACGTAGAAGCAAAAGGC, the fraction ligated came to 0.767.
For the variant GAGACCGCAACTGAAAAGTTGTTATGACTTGTCGTAAGACATTTTGGATGGGTTGAAGTTCTGCACGTAGAAGCAAAAGGC, the fraction ligated was 0.76.
Turning to GAGACCGCAACTGAAAAGTTGTTATGACTTGTCGTAAGACAGTTTGGATGGGTTGAAGTTCTGCACGTAGAAGCAAAAGGC, the fraction ligated worked out at 0.7.
Next, GAGACCGCAACTGAAAAGTTGTTATGAGTTGTCGTAAGACACTTTGGATGGGTTGAAGTTCTGCACGTAGAAGCAAAAGGC: 0.611; GAGACCGCAACTGAAAAGTTGTTATGAATTGTCGTAAGACACTTTGGATGGGTTGAAGTTCTGCACGTAGAAGCAAAAGGC: 0.688.
As to GAGACCGCAACTGAAAAGTTGTTATGATTTGTCGTAAGACACTTTGGATGGGTTGAAGTTCTGCACGTAGAAGCAAAAGGC, the fraction ligated came to 0.558.
Consider GAGACCGCAACTGAAAAGTTGTTATGACTTGTCGTAAGACGCTTTGGATGGGTTGAAGTTCTGCACGTAGAAGCAAAAGGC, for which the fraction ligated turned out to be 0.716.
Next, GAGACCGCAACTGAAAAGTTGTTATGACTTGTCGTAAGACTCTTTGGATGGGTTGAAGTTCTGCACGTAGAAGCAAAAGGC: 0.459.
Take GAGACCGCAACTGAAAAGTTGTTATGACTTGTCGTAAGACCCTTTGGATGGGTTGAAGTTCTGCACGTAGAAGCAAAAGGC: the fraction ligated stood at 0.0431.
